We go through 15 molecules from patent US20200054723A1 (ALLAKOS, published 2020).

B1: HDKD (antibody, human IgG1, V domains shown)
VH: EVQLVESGGGLVQPGGSLRLSCAASGFSLTIYGAHWVRQAPGKGLEWLSVIWAGGSTNYNSALMSRFTISKDNSKNTVYLQMNSLRAEDTAVYYCARDGSSPYYYSMEYWGQGTTVTVSS
VL: EIVLTQSPATLSLSPGERATLSCSATSSVSYMHWFQQKPGQAPRLWIYSTSNLASGIPARFSGSGSGTDFTLTISSLEPEDFAVYYCQQRSSYPFTFGPGTKLDIK
notes: human IgG1/kappa
B2: HDKG (antibody, human IgG1, V domains shown)
VH: EVQLVESGGGLVQPGGSLRLSCAASGFSLTIYGAHWVRQAPGKGLEWLSVIWAGGSTNYNSALMSRFTISKDNSKNTVYLQMNSLRAEDTAVYYCARDGSSPYYYSMEYWGQGTTVTVSS
VL: EIVLTQSPATLSLSPGERATLSCSATSSVSYMHWYQQKPGQAPRLLIYSTSNLASGIPARFSGSGSGTDFTLTISSLEPEDFAVYYCQQRSSYPFTFGPGTKLDIK
notes: human IgG1/kappa
B3: HFKF (antibody, human IgG1, V domains shown)
VH: EVQLVESGGGLVQPGGSLRLSCAASGFSLTIYGAHWVRQAPGKGLEWVSVIWAGGSTNYNSALMSRLTISKDNSKNTVYLQMNSLRAEDTAVYYCARDGSSPYYYSMEYWGQGTTVTVSS
VL: EIVLTQSPATLSLSPGERATLSCSATSSVSYMHWFQQKPGQAPRLLIYSTSNLASGIPARFSGSGSGTDYTLTISSLEPEDFAVYYCQQRSSYPFTFGPGTKLDIK
notes: human IgG1/kappa
B4: HFKE (antibody, human IgG1, V domains shown)
VH: EVQLVESGGGLVQPGGSLRLSCAASGFSLTIYGAHWVRQAPGKGLEWVSVIWAGGSTNYNSALMSRLTISKDNSKNTVYLQMNSLRAEDTAVYYCARDGSSPYYYSMEYWGQGTTVTVSS
VL: EIVLTQSPATLSLSPGERATLSCSATSSVSYMHWFQQKPGQAPRLLIYSTSNLASGVPARFSGSGSGTDFTLTISSLEPEDFAVYYCQQRSSYPFTFGPGTKLDIK
notes: human IgG1/kappa
B5: HFKB (antibody, human IgG1, V domains shown)
VH: EVQLVESGGGLVQPGGSLRLSCAASGFSLTIYGAHWVRQAPGKGLEWVSVIWAGGSTNYNSALMSRLTISKDNSKNTVYLQMNSLRAEDTAVYYCARDGSSPYYYSMEYWGQGTTVTVSS
VL: EIILTQSPATLSLSPGERATLSCSATSSVSYMHWFQQKPGQAPRLWIYSTSNLASGVPARFSGSGSGTDYTLTISSLEPEDFAVYYCQQRSSYPFTFGPGTKLDIK
notes: human IgG1/kappa
B6: HFKC (antibody, human IgG1, V domains shown)
VH: EVQLVESGGGLVQPGGSLRLSCAASGFSLTIYGAHWVRQAPGKGLEWVSVIWAGGSTNYNSALMSRLTISKDNSKNTVYLQMNSLRAEDTAVYYCARDGSSPYYYSMEYWGQGTTVTVSS
VL: EIILTQSPATLSLSPGERATLSCSATSSVSYMHWFQQKPGQAPRLLIYSTSNLASGIPARFSGSGSGTDFTLTISSLEPEDFAVYYCQQRSSYPFTFGPGTKLDIK
notes: human IgG1/kappa
B7: HEKB (antibody, human IgG1, V domains shown)
VH: EVQLVESGGGLVQPGGSLRLSCAASGFSLTIYGAHWVRQAPGKGLEWVGVIWAGGSTNYNSALMSRFTISKDNSKNTVYLQMNSLRAEDTAVYYCARDGSSPYYYSMEYWGQGTTVTVSS
VL: EIILTQSPATLSLSPGERATLSCSATSSVSYMHWFQQKPGQAPRLWIYSTSNLASGVPARFSGSGSGTDYTLTISSLEPEDFAVYYCQQRSSYPFTFGPGTKLDIK
notes: human IgG1/kappa
B8: HDKFmut (antibody, human IgG1, V domains shown)
VH: EVQLVESGGGLVQPGGSLRLSCAASGFSLTIYGAHWVRQAPGKGLEWLSVIWAGGSTNYNSALMSRFTISKDNSKNTVYLQMNSLRAEDTAVYYCARDGSSPYYYSMEYWGQGTTVTVSS
VL: EIVLTQSPATLSLSPGERATLSCSATSSVSYMHWFQQKPGQAPRLLIYSTSNLASGIPARFSGSGSGTDYTLTISSLEPEDFAVYYCQQRSSYPYTFGPGTKLDIK
notes: human IgG1/kappa
B9: HEKG (antibody, human IgG1, V domains shown)
VH: EVQLVESGGGLVQPGGSLRLSCAASGFSLTIYGAHWVRQAPGKGLEWVGVIWAGGSTNYNSALMSRFTISKDNSKNTVYLQMNSLRAEDTAVYYCARDGSSPYYYSMEYWGQGTTVTVSS
VL: EIVLTQSPATLSLSPGERATLSCSATSSVSYMHWYQQKPGQAPRLLIYSTSNLASGIPARFSGSGSGTDFTLTISSLEPEDFAVYYCQQRSSYPFTFGPGTKLDIK
notes: human IgG1/kappa
B10: HEKC (antibody, human IgG1, V domains shown)
VH: EVQLVESGGGLVQPGGSLRLSCAASGFSLTIYGAHWVRQAPGKGLEWVGVIWAGGSTNYNSALMSRFTISKDNSKNTVYLQMNSLRAEDTAVYYCARDGSSPYYYSMEYWGQGTTVTVSS
VL: EIILTQSPATLSLSPGERATLSCSATSSVSYMHWFQQKPGQAPRLLIYSTSNLASGIPARFSGSGSGTDFTLTISSLEPEDFAVYYCQQRSSYPFTFGPGTKLDIK
notes: human IgG1/kappa
B11: HEKD (antibody, human IgG1, V domains shown)
VH: EVQLVESGGGLVQPGGSLRLSCAASGFSLTIYGAHWVRQAPGKGLEWVGVIWAGGSTNYNSALMSRFTISKDNSKNTVYLQMNSLRAEDTAVYYCARDGSSPYYYSMEYWGQGTTVTVSS
VL: EIVLTQSPATLSLSPGERATLSCSATSSVSYMHWFQQKPGQAPRLWIYSTSNLASGIPARFSGSGSGTDFTLTISSLEPEDFAVYYCQQRSSYPFTFGPGTKLDIK
notes: human IgG1/kappa
B12: HDKE (antibody, human IgG1, V domains shown)
VH: EVQLVESGGGLVQPGGSLRLSCAASGFSLTIYGAHWVRQAPGKGLEWLSVIWAGGSTNYNSALMSRFTISKDNSKNTVYLQMNSLRAEDTAVYYCARDGSSPYYYSMEYWGQGTTVTVSS
VL: EIVLTQSPATLSLSPGERATLSCSATSSVSYMHWFQQKPGQAPRLLIYSTSNLASGVPARFSGSGSGTDFTLTISSLEPEDFAVYYCQQRSSYPFTFGPGTKLDIK
notes: human IgG1/kappa
B13: HFKD (antibody, human IgG1, V domains shown)
VH: EVQLVESGGGLVQPGGSLRLSCAASGFSLTIYGAHWVRQAPGKGLEWVSVIWAGGSTNYNSALMSRLTISKDNSKNTVYLQMNSLRAEDTAVYYCARDGSSPYYYSMEYWGQGTTVTVSS
VL: EIVLTQSPATLSLSPGERATLSCSATSSVSYMHWFQQKPGQAPRLWIYSTSNLASGIPARFSGSGSGTDFTLTISSLEPEDFAVYYCQQRSSYPFTFGPGTKLDIK
notes: human IgG1/kappa
B14: HDKF (antibody, human IgG1, V domains shown)
VH: EVQLVESGGGLVQPGGSLRLSCAASGFSLTIYGAHWVRQAPGKGLEWLSVIWAGGSTNYNSALMSRFTISKDNSKNTVYLQMNSLRAEDTAVYYCARDGSSPYYYSMEYWGQGTTVTVSS
VL: EIVLTQSPATLSLSPGERATLSCSATSSVSYMHWFQQKPGQAPRLLIYSTSNLASGIPARFSGSGSGTDYTLTISSLEPEDFAVYYCQQRSSYPFTFGPGTKLDIK
notes: human IgG1/kappa
B15: HFKA (antibody, human IgG1, V domains shown)
VH: EVQLVESGGGLVQPGGSLRLSCAASGFSLTIYGAHWVRQAPGKGLEWVSVIWAGGSTNYNSALMSRLTISKDNSKNTVYLQMNSLRAEDTAVYYCARDGSSPYYYSMEYWGQGTTVTVSS
VL: EIVLTQSPATLSLSPGERATLSCSATSSVSYMHWFQQKPGQAPRLLIYSTSNLASGIPARFSGSGSGTDFTLTISSLEPEDFAVYYCQQRSSYPFTFGPGTKLDIK
notes: human IgG1/kappa

In general, EC50 refers to the concentration at which the effect is half-maximal.

Where “and” joins values, the source holds several entries; their conditions need not be identical. Identical values can stand only once.

The target of the test is T1, recombinant human Siglec-8 extracellular domain (ECD) (human, UniProt Q9NYZ4 17-363).
T1 construct: extracellular domain; also called Siglec-8 ECD; full Siglec-8 ECD
T1 sequence (Q9NYZ4 17-363): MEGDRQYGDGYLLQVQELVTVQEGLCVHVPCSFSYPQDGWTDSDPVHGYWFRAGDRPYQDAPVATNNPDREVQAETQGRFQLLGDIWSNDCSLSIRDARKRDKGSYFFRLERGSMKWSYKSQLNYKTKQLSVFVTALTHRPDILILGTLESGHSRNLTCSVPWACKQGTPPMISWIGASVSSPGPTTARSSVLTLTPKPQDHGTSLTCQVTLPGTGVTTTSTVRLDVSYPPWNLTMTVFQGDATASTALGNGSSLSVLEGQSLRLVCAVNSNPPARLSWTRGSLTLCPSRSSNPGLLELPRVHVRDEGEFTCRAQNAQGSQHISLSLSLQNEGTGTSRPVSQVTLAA
In words: ELISA, coated Siglec-8 ECD. How it is done:
Binding of recombinant human Siglec-8 extracellular domain (ECD) by chimeric 2E2 and chimeric 2C4 IgG1K antibodies was measured by ELISA. […] Three-fold serial dilutions of a chimeric antibody (ch2E2 or ch2C4) or mouse antibody (m2E2 or m2C4) in 0.2% BSA/TBS (starting concentration was 5000 ng/mL) was added to each coated well. The plate was incubated for 2 hours at room temperature and the wells were subsequently washed before addition of goat-anti-human Fc peroxidase conjugate (1:10000 dilution) or anti-mouse Fc peroxidase conjugate (1:30000 dilution) diluted in 0.2% BSA/TBS solution. The plate was incubated for 45 minutes at room temperature, followed by washing and addition of 30 μL K-blue HRP substrate (SkyBio Ltd) to each well. After incubation at room temperature for 15 minutes, the reaction was stopped by adding 10 μL of Red Stop solution (SkyBio Ltd) to each well. The optical density or the experimental samples was read at 650 nm using the ELISA reader PHERAStar FS (BMG Labtech).
The fully humanized antibody heavy and light chains were combined and compared with the chimeric antibody to determine if replacing the 4 Å and canonical framework residues and interface residues was sufficient to successfully humanize 2E2. Expi293 cells were co-transfected with combinations of different humanized light chain vectors in association with different humanized heavy chain vectors. Siglec-8 antigen was used to measure antibody binding by ELISA as described in Example 1.
On the technique in general: ELISA stands for enzyme-linked immunosorbent assay.
On to B1, for which the EC50 amounted to 0.048 nM.

Turning to B2, the EC50 worked out at 0.113 nM. As to B3, the EC50 is 0.118 nM.

As for B4, the EC50 came to 0.104 nM.

Take B5: the EC50 is 0.099 nM.

Consider B6, for which the EC50 amounted to 0.063 nM.

For B7, the EC50 was 0.063 nM and 0.057 nM. The result for B8 reads 0.056 nM; that for B9, 0.302 nM; that for B10, 0.069 nM and 0.065 nM. The result for B11 reads 0.059 nM and 0.07 nM. The result for B12 reads 0.065 nM.

For the molecule B13, the EC50 was 0.058 nM. Take B14: the 50% effective concentration (EC50) came to 0.057 nM.

Take B15: the EC50 was determined as 0.106 nM.
